B1: α2M–mCherry–sfGFP–His (natural protein, human (cDNA from HepG2), UniProt P01023 24-1474, looked up)
chain: SVSGKPQYMVLVPSLLHTETTEKGCVLLSYLNETVTVSASLESVRGNRSLFTDLEAENDVLHCVAFAVPKSSSNEEVMFLTVQVKGPTQEFKKRTTVMVKNEDSLVFVQTDKSIYKPGQTVKFRVVSMDENFHPLNELIPLVYIQDPKGNRIAQWQSFQLEGGLKQFSFPLSSEPFQGSYKVVVQKKSGGRTEHPFTVEEFVLPKFEVQVTVPKIITILEEEMNVSVCGLYTYGKPVPGHVTVSICRKYSDASDCHGEDSQAFCEKFSGQLNSHGCFYQQVKTKVFQLKRKEYEMKLHTEAQIQEEGTVVELTGRQSSEITRTITKLSFVKVDSHFRQGIPFFGQVRLVDGKGVPIPNKVIFIRGNEANYYSNATTDEHGLVQFSINTTNVMGTSLTVRVNYKDRSPCYGYQWVSEEHEEAHHTAYLVFSPSKSFVHLEPMSHELPCGHTQTVQAHYILNGGTLLGLKKLSFYYLIMAKGGIVRTGTHGLLVKQEDMKGHFSISIPVKSDIAPVARLLIYAVLPTGDVIGDSAKYDVENCLANKVDLSFSPSQSLPASHAHLRVTAAPQSVCALRAVDQSVLLMKPDAELSASSVYNLLPEKDLTGFPGPLNDQDNEDCINRHNVYINGITYTPVSSTNEKDMYSFLEDMGLKAFTNSKIRKPKMCPQLQQYEMHGPEGLRVGFYESDVMGRGHARLVHVEEPHTETVRKYFPETWIWDLVVVNSAGVAEVGVTVPDTITEWKAGAFCLSEDAGLGISSTASLRAFQPFFVELTMPYSVIRGEAFTLKATVLNYLPKCIRVSVQLEASPAFLAVPVEKEQAPHCICANGRQTVSWAVTPKSLGNVNFTVSAEALESQELCGTEVPSVPEHGRKDTVIKPLLVEPEGLEKETTFNSLLCPSGGEVSEELSLKLPPNVVEESARASVSVLGDILGSAMQNTQNLLQMPYGCGEQNMVLFAPNIYVLDYLNETQQLTPEIKSKAIGYLNTGYQRQLNYKHYDGSYSTFGERYGRNQGNTWLTAFVLKTFAQARAYIFIDEAHITQALIWLSQRQKDNGCFRSSGSLLNNAIKGGVEDEVTLSAYITIALLEIPLTVTHPVVRNALFCLESAWKTAQEGDHGSHVYTKALLAYAFALAGNQDKRKEVLKSLNEEAVKKDNSVHWERPQKPKAPVGHFYEPQAPSAEVEMTSYVLLAYLTAQPAPTSEDLTSATNIVKWITKQQNAQGGFSSTQDTVVALHALSKYGAATFTRTGKAAQVTIQSSGTFSSKFQVDNNNRLLLQQVSLPELPGEYSMKVTGEGCVYLQTSLKYNILPEKEEFPFALGVQTLPQTCDEPKAHTSFQISLSVSYTGSRSASNMAIVDVKMVSGFIPLKPTVKMLERSNHVSRTEVSSNHVLIYLDKVSNQTLSLFFTVLQDVPVRDLKPAIVKVYDYYETDEFAIAEYNAPCSKDLGNA
notes: alpha 2-macroglobulin (α2M), cDNA amplified from HepG2 total cDNA; Tetramer with an intact thiol ester by native-PAGE and heat fragmentation; also called α2M–RG; α2M–RFP–GFP–His; source: purified from conditioned medium (Ni–NTA); not shown: mCherry, C-terminal, kept; sfGFP, C-terminal, kept

Experiments:
α2M–mCherry–sfGFP–His = molecular target: B1; test: co-IP; purified α2M–RG (0.1 μM) mixed with purified substrate, pre-incubated at 50 °C (heat stress) or 4 °C for 1 h; anti-GFP (GFP-nanobody) sepharose 2 h at 4 °C, washed four times with PBS; conditions: both partners purified
[1] = molecular target: the molecule itself; test: native gel or EMSA; Native-PAGE of purified α2M–RG on NuPAGE 3 to 8% Tris–acetate gels, Tris–glycine running buffer pH 8.3, with or without methylamine; migrated to ~920 kDa

binding result (α2M–mCherry–sfGFP–His) | Binder | stoichiometry N [1]
binds | His–ALFA–3C–ESD (natural protein, human, UniProt P10768 1-282, looked up, S-formylglutathione hydrolase (ESD), cDNA amplified from HEK293 total cDNA; A 3C protease site stands between the tags and the protein; Heat-stressed at 50 °C for 1 h together with the chaperone; also called recombinant ESD; source: E. coli BL21(DE3) LOBSTR, purified (HisPur Cobalt Resin)) MALKQISSNKCFGGLQKVFEHDSVELNCKMKFAVYLPPKAETGKCPALYWLSGLTCTEQNFISKSGYHQSASEHGLVVIAPDTSPRGCNIKGEDESWDFGTGAGFYVDATEDPWKTNYRMYSYVTEELPQLINANFPVDPQRMSIFGHSMGGHGALICALKNPGKYKSVSAFAPICNPVLCPWGKKAFSGYLGTDQSKWKAYDATHLVKSYPGSQLDILIDQGKDDQFLLDGQLLPDNFIAACTEKKIPVVFRLQEGYDHSYYFIATFITDHIRHHAKYLNA | –
binds | His–ALFA–3C–ALDH1A1 (natural protein, human, UniProt P00352 1-501, looked up, retinal dehydrogenase 1 (ALDH1A1), cDNA amplified from HEK293 total cDNA; A 3C protease site stands between the tags and the protein; Heat-stressed at 50 °C for 1 h together with the chaperone; also called recombinant ALDH1A1; source: E. coli BL21(DE3) LOBSTR, purified (HisPur Cobalt Resin)) MSSSGTPDLPVLLTDLKIQYTKIFINNEWHDSVSGKKFPVFNPATEEELCQVEEGDKEDVDKAVKAARQAFQIGSPWRTMDASERGRLLYKLADLIERDRLLLATMESMNGGKLYSNAYLNDLAGCIKTLRYCAGWADKIQGRTIPIDGNFFTYTRHEPIGVCGQIIPWNFPLVMLIWKIGPALSCGNTVVVKPAEQTPLTALHVASLIKEAGFPPGVVNIVPGYGPTAGAAISSHMDIDKVAFTGSTEVGKLIKEAAGKSNLKRVTLELGGKSPCIVLADADLDNAVEFAHHGVFYHQGQCCIAASRIFVEESIYDEFVRRSVERAKKYILGNPLTPGVTQGPQIDKEQYDKILDLIESGKKEGAKLECGGGPWGNKGYFVQPTVFSNVTDEMRIAKEEIFGPVQQIMKFKSLDDVIKRANNTFYGLSAGVFTKDIDKAITISSALQAGTVWVNCYGVVSAQCPFGGFKMSGNGRELGEYGFHEYTEVKTVTVKISQKNS | –
– | B1 | 4
